From the supplement of paper PMC7877785
± gives the uncertainty stated by the source.

Test: self-splicing fitness, log relative to wild type (ln ratio); higher = more splicing; Tetrahymena group I intron in knt gene, E. coli kanamycin selection, DiMSum; sequences stand for … in CUCUCU…GGAGGGAAAAGUUAUCAGGCAUGCACCUGGUAGCUAGUCUUUAAACCAAUAGAUUGCAUCGGUUUAAAAGGCAAGACCGUCAAAUUGCGGGAAAGGGGUCAACAGCCGUUCAGUACCAAGUCUCAGGGGAAACUUUGAGAUGGCCUUGCAAAGGGUAUGGUAAUAAGCUGACGGACAUGGUCCUAACCACGCAGCCAAGUCCUAAGUCAACAGAUCUUCUGUUGAUAUGGAUGCAGUUCACAGACUAAAUGUCGGUCGGGGAAGAUGUAUUCUUCUCAUAAGAUAUAGUCGGACCUCUCCUUAAUGGGAGCUAGCGGAUGAAGUGAUGCAACACUGGAGCCGCUGGGAACUAAUUUGUAUGCGAAAGUAUAUUGAUUAGUUUUGGAGUACUCGUGGUCG
Summary of the method: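 The eight P1ex-region nucleotides of an intron in the knt kanamycin-resistance gene on pET-22b(+) were all randomised and the library put into E. coli BL21(DE3). Six replicate transformations were grown overnight at 37°C or 30°C on LB agar with or without 25 μg/mL kanamycin, together with 100 μg/mL carbenicillin, 50 μM IPTG and 0.2% rhamnose. Colonies were pooled and amplicon-sequenced on an Illumina HiSeq 2500. Fitness from DiMSum is the error-weighted combination of wild-type-normalised replicate fold changes, kanamycin over none.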

Row | Sequence | self-splicing fitness (ln) (30 °C) | self-splicing fitness (ln) (37 °C)
1 | CGAUAGCAAUAUUACGUGCC | -1.8 ± 0.15 | 0.00354 ± 0.14
2 | AAAAAGCAAUAUUACGCCAA | -2.26 ± 0.17 | -1.33 ± 0.12
3 | GCAUAGCAAUAUUACGAGUA | -1.63 ± 0.15 | -1.23 ± 0.12
4 | CGUCAGCAAUAUUACGCAGC | -3.34 ± 0.2 | -2.26 ± 0.19
5 | UAUAAGCAAUAUUACGGUCA | -0.385 ± 0.12 | -0.125 ± 0.13
6 | UAAAAGCAAUAUUACGUGUU | -4.13 ± 0.15 | -2.63 ± 0.14
7 | AGGAAGCAAUAUUACGGAUG | -3.64 ± 0.2 | -2.37 ± 0.22
8 | AGUGAGCAAUAUUACGCCGG | -2.67 ± 0.26 | -1.81 ± 0.38
9 | CCUCAGCAAUAUUACGCUGA | -2.75 ± 0.35 | -3.12 ± 0.47
10 | UAUGAGCAAUAUUACGAGUC | – | -0.461 ± 0.46
11 | ACCCAGCAAUAUUACGUUAA | -1.6 ± 0.078 | -0.769 ± 0.071
12 | CGCGAGCAAUAUUACGUUGC | -3.68 ± 0.3 | –
13 | AGGCAGCAAUAUUACGAAGC | -4.02 ± 0.42 | -2.73 ± 0.33
14 | GAACAGCAAUAUUACGAAGA | -1.13 ± 0.18 | -0.694 ± 0.16
15 | AAAAAGCAAUAUUACGCUAG | -1.41 ± 0.086 | -0.619 ± 0.085
16 | AGACAGCAAUAUUACGUCUU | -4.54 ± 0.25 | -2.74 ± 0.18
17 | CACGAGCAAUAUUACGUGAA | -3.63 ± 0.14 | -2.49 ± 0.12
18 | CAAUAGCAAUAUUACGACCG | -0.173 ± 0.12 | 0.201 ± 0.18
19 | GACGAGCAAUAUUACGCUAC | -2.62 ± 0.18 | -2.54 ± 0.26
20 | UCCAAGCAAUAUUACGGGUU | -3.89 ± 0.14 | -1.75 ± 0.097
21 | CUUCAGCAAUAUUACGAUCG | -0.136 ± 0.044 | 0.234 ± 0.069
22 | GUGUAGCAAUAUUACGUCAU | -3.23 ± 0.2 | -2.63 ± 0.17
23 | GCCAAGCAAUAUUACGUAAA | -1.63 ± 0.1 | -0.72 ± 0.13
24 | CAAGAGCAAUAUUACGGUUG | -2.72 ± 0.12 | -2.25 ± 0.18

Row | Sequence | self-splicing fitness (ln) (30 °C) | self-splicing fitness (ln) (37 °C)
25 | CUCAAGCAAUAUUACGCGUC | -4.33 ± 0.39 | -1.37 ± 0.16
26 | CGGUAGCAAUAUUACGGAUA | – | -1.54 ± 0.3
27 | AGUGAGCAAUAUUACGCAUC | -3.32 ± 0.28 | -0.505 ± 0.26
28 | UGCUAGCAAUAUUACGCUGU | -3.58 ± 0.22 | -2.38 ± 0.27
29 | GGACAGCAAUAUUACGGCUU | -0.36 ± 0.11 | 0.07 ± 0.11
30 | GAUAAGCAAUAUUACGGUUG | -2.65 ± 0.12 | -1.26 ± 0.11
31 | CUUAAGCAAUAUUACGUGAA | -2.87 ± 0.12 | -2.55 ± 0.29
32 | UAACAGCAAUAUUACGGUGC | -3.42 ± 0.23 | -2.86 ± 0.2
33 | AGGAAGCAAUAUUACGGUUG | -3.3 ± 0.17 | -2.23 ± 0.16
34 | UCUUAGCAAUAUUACGUCUG | -2.67 ± 0.22 | -2.95 ± 0.37
35 | GCCAAGCAAUAUUACGUGUG | -1.8 ± 0.07 | -0.823 ± 0.08
36 | GCUGAGCAAUAUUACGACUU | -1.64 ± 0.14 | 0.471 ± 0.14
37 | AUAAAGCAAUAUUACGAUAU | -0.0773 ± 0.088 | 0.168 ± 0.1
38 | CAAUAGCAAUAUUACGAAUU | -3.51 ± 0.26 | -2.23 ± 0.18
39 | AGUAAGCAAUAUUACGCCGC | -1.03 ± 0.25 | -2.95 ± 0.48
40 | AUGAAGCAAUAUUACGUCUG | -0.0483 ± 0.061 | 0.316 ± 0.079
41 | GCUCAGCAAUAUUACGAGCA | -2.63 ± 0.16 | -1.09 ± 0.11
42 | UCGCAGCAAUAUUACGGGAU | -3.64 ± 0.25 | -2.3 ± 0.18
43 | UCUGAGCAAUAUUACGGGAC | -2.86 ± 0.4 | -2.37 ± 0.23
44 | CAAAAGCAAUAUUACGUCUA | -1.75 ± 0.097 | -0.725 ± 0.083
45 | GCCCAGCAAUAUUACGGCAU | -3.47 ± 0.13 | -1.01 ± 0.1
46 | GCGCAGCAAUAUUACGAUCC | -0.589 ± 0.15 | 0.707 ± 0.24
47 | CGUUAGCAAUAUUACGGCUA | -2.27 ± 0.37 | –
48 | GUUAAGCAAUAUUACGCUUG | -2.28 ± 0.14 | -0.983 ± 0.15
